Test results: publication PMC11601375 (bioRxiv, 2024)

Target: T1, vacuolar Qa-SNARE Vam3 (yeast, UniProt Q12241 1-283)
T1 sequence: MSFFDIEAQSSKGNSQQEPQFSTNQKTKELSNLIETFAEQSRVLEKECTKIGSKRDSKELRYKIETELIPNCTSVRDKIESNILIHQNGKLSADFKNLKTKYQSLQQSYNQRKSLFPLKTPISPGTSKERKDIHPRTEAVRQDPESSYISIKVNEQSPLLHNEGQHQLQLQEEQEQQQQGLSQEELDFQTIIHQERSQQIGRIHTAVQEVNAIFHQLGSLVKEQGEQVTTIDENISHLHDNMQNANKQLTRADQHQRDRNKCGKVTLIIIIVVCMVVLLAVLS
Test: co-IP

B1: vacuolar Qb-SNARE Vti1 (natural protein)
chain: MSSLLISYESDFKTTLEQAKASLAEAPSQPLSQRNTTLKHVEQQQDELFDLLDQMDVEVNNSIGDASERATYKAKLREWKKTIQSDIKRPLQSLVDSGDRDRLFGDLNASNIDDDQRQQLLSNHAILQKSGDRLKDASRIANETEGIGSQIMMDLRSQRETLENARQTLFQADSYVDKSIKTLKTMTRRLVANKFISYAIIAVLILLILLVLFSKFK
binding result: binds
